Laboratory results from the supplement of paper PMC10724198.
± gives the standard deviation of the averaged measurements.

Test system: Saccharomyces cerevisiae
Experiment: protein stability index of tFT-peptide fusion (C-terminal peptide) (PSI (0-1 scale)); higher = more stable (slower turnover)
Details: genetic background: wild type; temperature: 30 C
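Further: PSI is a weighted mean of sequencing reads over stability bins, variants kept only with over 10 reads, mCherry proximal and sfGFP distal, peptide attached via GGGS linker.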

| Sequence | protein stability index |
| --- | --- |
| KSVAKLGHGGSP | 0.677 ± 0.064 |
| QNTTESANWSIT | 0.696 ± 0.052 |
| GLKTLQTCRIIR | 0.691 ± 0.054 |
| SAGPNCVWSSYN | 0.732 ± 0.0098 |
| GVVVRGGEWGLD | 0.675 ± 0.061 |
| PPATTPASTNLQ | 0.7 ± 0.017 |
| VFLVDCFGVCFL | 0.784 ± 0.048 |
| PPPPLPDTLRSP | 0.6238 ± 0.0053 |
| AFCFCIFSSFLV | 0.535 ± 0.021 |
| SPSRHPSPPKPP | 0.607 ± 0.021 |
| LYRRLLCYPKTR | 0.675 ± 0.0043 |
| GRLKSTSTIRRF | 0.722 ± 0.021 |
| PASGHLPPPLSP | 0.641 ± 0.064 |
| KIKSEFNMIGKN | 0.693 ± 0.091 |
| PESGPVRLRTPP | 0.624 ± 0.029 |
| SGSVALWVCSVV | 0.5878 ± 0.0056 |
| VCDIRSFALWYA | 0.8 ± 0.024 |
| ETNKEDKGKKSI | 0.6577 ± 0.0051 |
| VEGISKMTRINP | 0.8698 ± 0.0057 |
| NTDSIKKQKKKK | 0.675 ± 0.019 |
| PPPFSPPAPSPP | 0.669 ± 0.053 |
| LPPPPLPQAPPT | 0.702 ± 0.075 |
| RGGRGGPGWVAG | 0.681 ± 0.025 |
| QKKKIRKKKKTT | 0.685 ± 0.0074 |
| VLAWVPNFALLP | 0.677 ± 0.063 |

| Sequence | protein stability index |
| --- | --- |
| ERNDLGNRLSMD | 0.654 ± 0.02 |
| WVGLGRVWVKLG | 0.697 ± 0.044 |
| SLGGFLPPESFV | 0.708 ± 0.049 |
| ARRAAPRRPPSD | 0.689 ± 0.047 |
| MYRSLPRLKQTY | 0.721 ± 0.031 |
| VGFDFLFRFFFL | 0.628 ± 0.037 |
| AFRCGGAPGDFA | 0.654 ± 0.0094 |
| FYSLFLPRPFLS | 0.579 ± 0.024 |
| FGASYLGSLLDV | 0.699 ± 0.057 |
| GRLRNVSLLSFC | 0.662 ± 0.011 |
| AQRGSTAASAGG | 0.683 ± 0.07 |
| ATLGRCYSSNGL | 0.672 ± 0.031 |
| PLPPPRPPPSPP | 0.603 ± 0.071 |
| PPPPLPLPPFSP | 0.8017 ± 0.0011 |
| SSRTFRFRPPTI | 0.702 ± 0.01 |
| GVGLLAHLLIYR | 0.556 ± 0.0086 |
| PVAGSAGVRNLP | 0.671 ± 0.012 |
| NDGLRRLICGGT | 0.68 ± 0.022 |
| TSAPDSPVPSLP | 0.695 ± 0.015 |
| SSSCRPVSSAIV | 0.651 ± 0.089 |
| PFHSPLMPAHSH | 0.764 ± 0.049 |
| SKKNKPAQRRPH | 0.729 ± 0.026 |
| AGISSLLVQSVP | 0.679 ± 0.049 |
| PPAVDSSPRSRD | 0.7148 ± 0.0019 |
| RSDIANWFLCLS | 0.798 ± 0.037 |

| Sequence | protein stability index |
| --- | --- |
| LHAGWNLISSRL | 0.633 ± 0.037 |
| PRLFLSICPFSF | 0.682 ± 0.051 |
| SGAGGGGWWGGV | 0.731 ± 0.011 |
| RSVPLLFPSLFL | 0.72 ± 0.027 |
| FPSFSLIFFSLI | 0.489 ± 0.074 |
| PFCLPRPVRGVL | 0.728 ± 0.1 |
| CCLASVSADKVV | 0.703 ± 0.025 |
| PPLPPSLPPPPP | 0.63 ± 0.12 |
| GVNTKEEPNEFI | 0.698 ± 0.041 |
| TGRLDFSIQYYR | 0.6986 ± 0.0069 |
| VSKVGDMNSGSK | 0.651 ± 0.013 |
| GNCVESCMWQRE | 0.704 ± 0.05 |
| PFSTVDLATAYP | 0.712 ± 0.017 |
| EDIIRPWSMFQE | 0.718 ± 0.043 |
| NPSRASAWPHVH | 0.607 ± 0.061 |
| VSYLAQSFLPNL | 0.69928 ± 9.6e-05 |
| CSRSPASAPRPH | 0.688 ± 0.018 |
| RPTPSHRTPSIG | 0.723 ± 0.016 |
| LQALQTKPSQAL | 0.688 ± 0.083 |
| VHFFHLCFCEIL | 0.673 ± 0.051 |
| LGGGARGSGGGA | 0.727 ± 0.028 |
| LVHDQKFSCNWL | 0.74 ± 0.031 |
| LSNATPAHAGKP | 0.706 ± 0.13 |
